Test results as given in patent US20250041326A1, “THERAPEUTIC AGENT FOR REFRACTORY VIRAL INFECTIONS” (TOKYO METROPOLITAN INSTITUTE OF MEDICAL SCIENCE, priority 2021, published 2025).

Experiments:
HBV [1] = assay: cccDNA in HepG2 cells stably expressing HBV; type: cell-based, human; settings: 5 days, IRF1 plasmid 0.5 μg/well, IFN-lambda 1 100 ng/mL, or supernatant every day
Description: HepG2 cells made susceptible to HBV infection (HepG2-hNTCP-30 cells) were transfected with a 1.3-fold longer gene of HBV genotype C to prepare cells stably expressing HBV.
The primary human hepatocyte-derived human IRF1 gene (GenBank Accession No. NM_002198.3) was cloned into a pCI-neo Mammalian Expression Vector (Promega) to construct an IRF1 plasmid.
Using Lipofectamine 3000 (Invitrogen), the IRF1 plasmid (0.5 μg/well) was introduced by reverse transfection into HepG2 cells stably expressing HBV (2×10^5 cells/well, 48-well plate).
As an empty plasmid, a pCI-neo Mammalian Expression Vector was used.
Using the culture supernatant of the HepG2 cells stably expressing HBV (2×10^5 cells/well, 48-well plate) transfected with the IRF1 plasmid or the empty plasmid (0.5 μg/well), untransfected HepG2 cells stably expressing HBV (2×10^5 cells/well, 48-well plate) were treated every day for 5 days. Likewise, HepG2 cells stably expressing HBV were treated for 5 days with a medium containing recombinant human IFN-lambda 1 (100 ng/mL, R&D systems).
DNA in the cells were extracted by the sodium iodide method. […]
(§1) were used, and the Plasmid-Safe ATP-dependent DNase-treated product (equivalent to 50 ng total DNA) was measured according to the protocol of THUNDERBIRD Probe qPCR Mix (TOYOBO). […]

HBV [2] = assay: rcDNA and cccDNA in HBV-infected primary human hepatocytes treated with IFNλ1 protein; type: cell-based; settings: primary human hepatocytes persistently infected with HBV, 15 days treatment
Description: Primary human hepatocytes persistently infected with HBV were treated with IFNλ1 protein for 15 days, and rcDNA and cccDNA were quantified.
Primary human hepatocytes persistently infected with HBV for 22 days or longer (PhoenixBio Co., Ltd., Japan) were cultured in a medium containing recombinant human IFN-lambda 1 (R&D systems) with medium replacement every 5 days, and the cells were collected after 15 days.
DNA in the cells were extracted by the sodium iodide method.
The cells were mixed with 200 μL of lysis buffer (10 mM EDTA, 500 mM 2-mercaptoethanol, 50 mM Tris-HCl, 75 mM KCl, 5% sarcosyl, 0.1 μg/μL protease K, pH 8.0), followed by heating at 55° C. for 20 minutes. After addition of 300 μL of a NaI solution (40 mM Tris-HCl, 20 mM EDTA, 7.6 M sodium iodide, coprecipitant), the mixture was allowed to stand at room temperature for 15 minutes. After addition of 600 μL of mixed alcohols (40% isopropanol, 60% 1-butanol), the mixture was cooled on ice for 15 minutes. The mixture was centrifuged at 4° C. at 15,000×g for 20 minutes to precipitate DNA. […]
were used, and an aliquot equivalent to 250 ng gDNA was measured according to the protocol of THUNDERBIRD Probe qPCR Mix (TOYOBO). […]
as §1

B1: IFNλ1 protein: recombinant human IFN-lambda 1 (R&D systems) (protein, UniProt Q8IU54 20-200, looked up)
Interferon lambda-1: GPVPTSKPTTTGKGCHIGRFKSLSPQELASFKKARDALEESLKLKNWSCSSPVFPGNWDLRLLQVRERPVALEAELALTLKVLEAAAGPALEDVLDQPLHTLHHILSQLQACIQPQPTAGPRPRGRLHHWLHRLQEAPKKESAGCLEASVTFNLFRLLTRDLKYVADGNLCLRTSTHPEST
cccDNA (HBV [1]): not reduced
cccDNA levels (HBV [2]): reduced in a manner dependent on the amount
rcDNA levels (HBV [2]): reduced in a manner dependent on the amount
